We go through 15 molecules from US20190367619A1 (ARGENX, published 2019).

In assay [1] the target is T1, human galectin-10 as coated in ELISA (soluble galectin-10; tag not given) (human, UniProt Q05315 1-142, limits assumed).
T1 construct: also called coated galectin-10; Gal10
T1 sequence: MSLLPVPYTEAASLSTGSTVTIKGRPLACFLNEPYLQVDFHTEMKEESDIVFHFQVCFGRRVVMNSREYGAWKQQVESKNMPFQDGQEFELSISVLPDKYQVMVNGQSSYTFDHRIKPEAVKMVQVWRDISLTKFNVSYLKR
Put plainly: ELISA, scFv periplasmic extract on coated soluble galectin-10, anti-Myc-HRP. Here is the method: In order to test the binding capacity of the scFvs to galectin-10, an ELISA binding assay was established. Briefly, a Maxisorp plate was coated with soluble galectin-10 (1 μg/mL), then blocked with casein, before being incubated with the periplasmic extract (dilution 1/5 in PBS) containing the scFv-Myc. Detection of the binder was carried out with an anti-Myc-HRP antibody. Absorbance was measured at 450 nm (reference at 620 nm) with Tecan instrument. A significant number of galectin-10 scFv binders were isolated after the second round of selection (45-87% of binders).
For orientation: ELISA stands for enzyme-linked immunosorbent assay.

The next assay deals with T2, human galectin-10-His (human).
T2 construct: Whether the last M of the tag is the start Met of galectin-10 is not clear; also called human Gal10-HIS; humanGal10-His
T2 chain: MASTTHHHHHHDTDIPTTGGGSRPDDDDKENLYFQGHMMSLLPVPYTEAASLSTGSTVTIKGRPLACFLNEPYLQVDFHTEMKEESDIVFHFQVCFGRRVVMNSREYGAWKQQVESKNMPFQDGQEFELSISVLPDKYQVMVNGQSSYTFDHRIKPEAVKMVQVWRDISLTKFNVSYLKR
Kind of assay: ELISA, Gal10-His coated at 1 ug/mL, VHH titrated, anti-Myc-HRP. Here is the method:
(§1) The binding capacity of the 15 VHH clones was analysed by ELISA. Briefly, a Maxisorp plate was coated overnight with human or cynomolgus WGS or YRT isoforms galectin-10-His at 1 μg/mL and blocked with PBS 1% casein, before being incubated with a serial dilution of the VHH (from 4 μM, dilution 1/3, 12 points of dilutions). […] Absorbance was measured at 450 nm (reference at 620 nm) with Tecan instrument. Finally, the raw data (OD values) were plotted on GraphPad Prism 7.01. […] As a positive control, clone 1D06 from the previous human specific panel was included.

In assay [2] the target is T3, cynomolgus galectin-10-His, WGS isoform (cynomolgus).
T3 construct: not shown: His tag
T3 chain: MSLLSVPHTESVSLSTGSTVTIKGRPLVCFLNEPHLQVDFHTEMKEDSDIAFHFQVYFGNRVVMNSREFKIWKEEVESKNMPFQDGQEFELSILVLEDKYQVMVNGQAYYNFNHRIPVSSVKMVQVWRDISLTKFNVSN
Described as above. The method, then:
as §1

For assay [3], the target named is T4, cynomolgus galectin-10-His, YRT isoform (cynomolgus).
T4 construct: not shown: His tag
T4 chain: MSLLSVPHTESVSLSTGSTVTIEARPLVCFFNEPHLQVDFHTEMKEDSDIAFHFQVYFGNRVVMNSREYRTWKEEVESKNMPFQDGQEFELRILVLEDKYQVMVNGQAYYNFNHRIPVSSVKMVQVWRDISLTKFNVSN
The description is as above. Here is the method: as §1

B1: scFv 4B10 (periplasmic extract, Myc-tagged) (scFv, not shown: small tags and cut ends)
scFv: QLQLVESGGGLVQPGGSLRLSCAASGFTFSNYWMYWVRQAPGKGLEWVSAIDVGGGTTDYAGSVKGRFTISRDNTKSTVYLQMNTLKPEDTALYYCLRGGSYYGGMDYWGKGTLVTVSSGGGGSGGGGSGGGGSQSALTQPSAVSVSLGQTARITCQGAKLGRYYGIWYQQKPGQAPVQVIYGDSNRPSGIPERFSGSSSGGTATLTISGAQAEDEADYYCQSYESSTSPVFGGGTHLTVL
As to B1, in assay [1], the “PERI-ELISA binding (OD values)” value amounted to 2.44 OD.

B2: VHH clone 14E02 (VHH)
VHH: QVQLVESGGGLAQAGGSLRLSCVASGRAAGTYSMAWFRQAPGKEREFVAAITWAGGYTYGADSEKGRFTISRDNAKNTVYLQMNSLKPEDTAVYSCAGGRLFTSQSSAYQYWGQGTQVTVSS
notes: Purified VHH-Myc-His from E. coli; not shown: Myc and His tags of the phagemid vector
As to B2, the “Bmax (OD values)” value with human galectin-10-His was determined as 0.7 OD; in assay [2] it was 1.8 OD; in assay [3], 2.1 OD.

B3: VHH clone 14F10 (VHH)
VHH: EVQLVESGGGLVQAGDSLRLSCAASGRTFSGYAVGWFRQAPGKEREFVTIISWNGGTHYADSVKGRFAISRDNAKNTVYLQMNNLKPEDTAVYYCAVSPKYYFSPETYNYWGQGTQVTVSS
notes: as for B2
Broadly, the EC50 is the concentration that produces a half-maximal response. Read a high EC50 as a less potent agent. With B3, the “Bmax (OD values)” value with human galectin-10-His is 0.5 OD; in assay [2], 2.6 OD; in assay [3], 3 OD. Moreover, the results for the 50% effective concentration (EC50) in assay [2] and in assay [3] were 60.4 nM and 3 nM, respectively.

B4: scFv 4G05 (periplasmic extract, Myc-tagged) (scFv, not shown: small tags and cut ends)
scFv: QLQVVESGGGLVQTGGSLTLSCTTSGFTFSRYWMIWVRQAPGKGLEWVSSIYNDGGNTYYADSVKGRFTISRDNSENTLYLQMNSLKSEDTAVYYCAKLKAAYYGMDYWGKGTLVTVSSGGGGSGGGGSGGGGSSSALTQPSAVSVSLGQTARITCQGANLGRYYGIWYQQKPGQAPVQVIYGDSNRPSGIPERFSGSSSGGTATLTISGAQAEDEADYYCQSYESSTSPVFGGGTHLTVL
As for B4, the “PERI-ELISA binding (OD values)” value in assay [1] stood at 3.8 OD.

B5: VHH clone 13C10 (VHH)
VHH: QLQLVESGGGLVQAGGSLKLSCAASGRTFNPYTMGWFRQAPGKEREFVAVVSSGGGTYYANSVKGRFTISRDNAKATVYLQMNSLKPEDTAVYYCAAGSIFRWSPMSYDYWGQGTQVTVSS
notes: as for B2
For the molecule B5, the “Bmax (OD values)” value with human galectin-10-His was 1 OD; in assay [2], 2.3 OD; in assay [3] it was 2.7 OD. For the same molecule, in assay [3], the concentration for a half-maximal effect (EC50) came out at 186 nM.

B6: VHH clone 14E10 (VHH)
VHH: ELQLVESGGGLVQAGGSLRLSCAASEGTFRPYAMGWFRQAPRKEREFVAVISLSGAYTYNVNAVKGRFTISRDNAKNTVYLQMNSLTPEDTAIYYCGASRTYYRTDESTYEYWGQGTQVTVSS
notes: as for B2
Turning to B6, the “Bmax (OD values)” value worked out at 0.5 OD in the assay with human galectin-10-His, 1.4 OD in assay [2] and 2.7 OD in assay [3]. Moreover, the concentration giving a half-maximal response (EC50) in assay [3] stood at 15.8 nM.

B7: VHH clone 13A05 (VHH)
VHH: QVQLVESGGGLVQAGGSLRLSCAASSSSYSMSWFRQAPGKEREFVAIISWSGGTYYDDSVKGRFTVSRDNAKNTVYLQMNSLKPEDTAVYYCAAGTQFSFSYREYDYWGQGTQVTVSS
notes: as for B2
Take B7: the “Bmax (OD values)” value in the assay with human galectin-10-His amounted to 1.8 OD; in assay [2], 2.7 OD; in assay [3], 2.9 OD. Moreover, the EC50 in the assay with human galectin-10-His was found to be 69.7 nM; in assay [2], 77.8 nM; in assay [3] it was 66.3 nM.

B8: VHH clone 13C06 (VHH)
VHH: QLQLVESGGGLVQAGGSLRLSCAASSSSYSMGWFRQAPGKEREFVATISWSGGFYYDDSVKGRFTVSRDNAKNTVYLQMNSLKPEDTAVYYCAAGTRFSFSYREYHYWGQGTQVTVSS
notes: as for B2
For B8, the “Bmax (OD values)” value with human galectin-10-His came out at 2.8 OD; in assay [2], 2.9 OD; in assay [3], 2.9 OD. The results for the concentration giving a half-maximal response (EC50) (in the assay with human galectin-10-His; in assay [2]; in assay [3]) were 27.5 nM, 10.3 nM and 16.2 nM, respectively.

B9: VHH clone 1D06 (VHH, not shown: large carriers)
VHH: QLQLVESGGGLVQPGGSLRLSCAASENSVSTYAMGWFRQAPGKEREFVAAITRAGGNTYNADSVKGRFTISRDNAENTIYLQMNSLKPEDTAVYSCAAGPRYSTISTMFPYWGQGTQVTVSS
notes: Positive control from the previous human-specific panel; also called 1D6
Turning to B9, in the assay with human galectin-10-His, the “Bmax (OD values)” value is 1.2 OD and the response was half-maximal at 90.7 nM (EC50). Also, in assay [2], the “Bmax (OD values)” value turned out to be 0 OD and the binding result is “no binding (tested: up to 4 uM VHH)”. Moreover, in assay [3], the “Bmax (OD values)” value is 0 OD and the binding result is “no binding (tested: up to 4 uM VHH)”.

B10: VHH clone 13E07 (VHH)
VHH: ELQVVESGGGLVQAGDSLRLSCAVSGRTFSSYHMMWFRQAPGKEREFVAAIAWRGGTYCANSVKGRCTISRDNAKDTVYLQMNSLKPEDTAVYFCAASLRYVFDPSAMDYWGKGTLVTVSS
notes: as for B2
B10: the “Bmax (OD values)” value with human galectin-10-His worked out at 1.1 OD; in assay [2] it was 2.3 OD; in assay [3] it was 2.4 OD. For the same molecule, the response in assay [2] was half-maximal at 371 nM (EC50).

B11: VHH clone 13D12 (VHH)
VHH: QLQLVESGGGLVQAGDSLRLSCAASGRTFSSYHMMWFRQAPGKEREFVAALAWRGGTYCANSVKGRCTISRDNAQDTVYLQMNSLKPEDTAVYFCAASRRYVFDPSAMDYWAKGTLVTVSS
notes: as for B2
For B11, the figures for the “Bmax (OD values)” value (with human galectin-10-His; in assay [2]; in assay [3]) were 0.8 OD, 1.3 OD and 2.4 OD, respectively. Further, in assay [3], the response was half-maximal at 119 nM (EC50).

B12: scFv 4H10 (periplasmic extract, Myc-tagged) (scFv, not shown: small tags and cut ends)
scFv: QVQLVESGGGLVQPGGSLRLSCAASGFTFDDYAMSWVRQAPGKGLEWVSAISWNGGSTYYAESMKGRFTISRDNAKNTLYLQMNSLKSEDAAVYYCAKDLSASGSYYHTFGSWGQGTQVTVSSGGGGSGGGGSGGGGSQAGLTQPPSVAGTLGKTVTISCAGTSSDVGYGDYVSWYQHIPGTAPKLLIYKVKTRASGIPDRFSGSKSGNTASLTISGLQSGDESDYYCASYKNGGTAVFGGGTHLTVL
On to B12, for which the “PERI-ELISA binding (OD values)” value in assay [1] was found to be 3.48 OD.

B13: VHH clone 13H07 (VHH)
VHH: QLQLVESGGGLVQAGGSLRLSCVASGRTFSTYAMDWFRQAPGKEREFVAAISWHSAIYYADAVKGRFTISRDNGKNTMYLQMNNLKPEDTAVYFCAAALRYRFNPSAMEYWGKGTLVTVSS
notes: as for B2
Regarding B13, the “Bmax (OD values)” value with human galectin-10-His stood at 1.5 OD; in assay [2], 2.7 OD; in assay [3] it was 3.1 OD. For the same molecule, the concentration for a half-maximal effect (EC50) in the assay with human galectin-10-His was 180 nM; in assay [2], 15.6 nM; in assay [3] it was 1.3 nM.

B14: VHH clone 13C07 (VHH)
VHH: QLQVVESGGGLVQAGGSLRLSCAASSSAYSMAWFRQAPGKEREFVAAITWSGGSHHDDSVKGRFTISRDGAKNTVYLQMNSLKPEDTAVYYCAVGTLYSFSYRDYDYWGQGTQVTVSS
notes: as for B2
In the case of B14, the “Bmax (OD values)” value in the assay with human galectin-10-His was found to be 1.3 OD; in assay [2], 2.9 OD; in assay [3] it was 2.8 OD. In addition, the half-maximal effective concentration (EC50) with human galectin-10-His stood at 107 nM; in assay [2], 7.1 nM; in assay [3], 33.2 nM.

B15: VHH clone 13G12 (VHH)
VHH: QLQVVESGGGLVQAGGSLRLSCAASSSAYSMGWFRQAPGKEREFVAVISWSGGSHYDDSVKGRFTISRDGAKNTVYLQMNSLKPEDTAVYYCAVGTLYSFRYRDYDYWGQGTQVTVSS
notes: as for B2
Regarding B15, the “Bmax (OD values)” value amounted to 1.6 OD in the assay with human galectin-10-His, 2.9 OD in assay [2] and 3.1 OD in assay [3]. The EC50 is 141 nM in the assay with human galectin-10-His, 11.8 nM in assay [2] and 3.1 nM in assay [3].
